From patent publication US20220242961A1 (ABL BIO, published 2022)
Positions count from the first letter of the chain named.

B1: 41B02 (antibody, human IgG4 S228P, lambda, V domains shown)
VH: EVQLLESGGGLVQPGGSLRLSCAASGFTFSGYDMSWVRQAPGKGLEWVSVIYPDDGNTYYADSVKGRFTISRDNSKNTLYLQMNSLRAEDAAVYYCAKHGGQKPTTKSSSAYGMDGWGQGTLVTVSS
VL: QSVLTQPPSASGTPGRRVTISCSGSSSNIGNNYVTWYQQLPGTAPKLLIYADSHRPSGVPDRFSGSKSGTSASLAISGLRSEDEADYYCATWDYSLSGYVFGGGTKLTVLG
notes: also called anti-4-1BB antibody 41B02; 41B02 clone
B2: 41B02.01 (antibody, human IgG4 S228P, lambda, V domains shown)
VH: B1 VH with A91T
VL: B1 VL with R16Q
B3: 41B03 (antibody, human IgG4 S228P, V domains shown)
VH: EVQLLESGGGLVQPGGSLRLSCAASGFTFSSNVMNWVRQAPGKGLEWVSEISHSGSTNYNPSLKSRFTISRDNSKNTLYLQMNSLRAEDTAVYYCAVGAGNLGYWGQGTLVTVSS
VL: EIVLTQSPGTLSLSPGERATLSCQASQDISNYLNWYQQKPGQAPRLLIYGASSRATGIPDRFSGSGSGTDFTLTISRLEPEDFAVYYCQQYNSYPITFGQGTKLEIKR

Tests used:
human 4-1 BB-Fc protein = biological target: T1, human 4-1 BB-Fc protein (human, UniProt Q07011 24-186); assay: ELISA on plate-coated human 4-1BB-Fc (0.1 ug/ml), goat anti-human IgG-HRP, TMB
T1 construct: also called extracellular domain 4-1 BB antigen; not shown: Fc part
Protocol: To evaluate the antigen binding activity, the antibody candidates were subjected to ELISA test. Briefly, microtiter plates were coated with human 4-1 BB-Fc protein at 0.1 μg/ml in PBS, 100 μl/well at 4° C. overnight, then blocked with 100 μl/well of 5% BSA. Serial dilutions of antibodies obtained in Example 1.1 were added to each well and incubated for 1-2 hours at RT. The plates were washed with PBS/Tween and then incubate with goat-anti-human IgG antibody conjugated with Horse Radish Peroxidase (HRP) for 1 hour at RT. After washing, the plates were developed with TMB substrate and analyzed by spectrophotometer at OD 450-630 nm.

[1] = biological target: T2, 4-1BB (antigen of the Octet kinetics) (human, UniProt Q07011 24-186, limits assumed); assay: Octet Red 96 kinetics
T2 construct: the whole entry is named
Description: To explore the binding kinetics of the humanized antibody, this example performed the affinity ranking by using Octet Red 96.

| Binder | EC50 (read off the curve) (human 4-1 BB-Fc protein) [nM] | Kd [1] [nM] | koff [1] [s⁻¹] | kon [1] [M⁻¹ s⁻¹] |
| --- | --- | --- | --- | --- |
| B1 | ~0.03 | – | – | – |
| B2 | ~0.03 | – | – | – |
| B3 | – | 0.79 | 0.000597 | 755000 |
